According to paper PMC7515959, “Imaging angiogenesis in patients with head and neck squamous cell carcinomas by [^68Ga]Ga-DOTA-E-[c(RGDfK)]2 PET/CT” (European Journal of Nuclear Medicine and Molecular Imaging, 2020):

How the values were obtained:
[1] = parameters: species or system human; conditions: in vivo
Procedure: Five patients underwent three static whole-body PET/CT at 30, 60 and 90 min post injection on a Biograph 40 mCT scanner (Siemens Medical Solutions, Knoxville TN, USA) equipped with a dual-slice CT for 4 min of PET data per bed position, with bed positions from the base of the skull to trochanter major. For each PET/CT image, two image reconstructions were used, with a TrueX algorithm with point spread function (PSF) and time of flight (TOF) measurements, using three iterations, 21 subsets, matrix size 256 × 256 (pixel spacing of 3.2 mm) or 200 × 200 (pixel spacing of 4.07 mm), full width at half maximum (FWHM) of 5 mm. Post-processing was performed using a 3D Gaussian filter kernel, 7.5 or 3 mm. […]
All ^68Ga-RGD PET/CT scans were evaluated by two experienced nuclear medicine physicians (WJGO, EHJGA) on a dedicated workstation (Oasis software, Segami Corporation, Columbia, MD, USA) with a PET/CT viewer for automatic image registration. […]
Numerical data are presented as mean ± standard deviation (SD). […] The biological half-life of ^68Ga-RGD was calculated using bi-exponential regression analysis in MATLAB version R2014b (MathWorks, Natick, MA, USA). The analyses of optimal imaging time point and uptake values were analysed using SPSS Statistics, version 22.0.0.1 (IBM), with a one-way ANOVA followed by a Bonferroni post hoc test to adjust for multiple comparisons. […]

[2] = parameters: species or system human; conditions: in vivo; remark: listed apart in the source
Procedure: (§1) Included patients had no restrictions in food or medication intake. ^68Ga-RGD was administered intravenously using a slow bolus injection of 8 ml over 40 s (200 ± 29 MBq; range 119–218 MBq, 42 ± 8 μg; range 34–58 μg). The net injected dose was calculated by measuring the syringe before and after ^68Ga-RGD administration using a dedicated dose calibrator (VDS-405, Comecer, Joure, The Netherlands). Patients were monitored for (severe) adverse events according to the Common Terminology Criteria for Adverse Events, version 4.03. Venous blood samples at 1, 2, 5, 10, 30 and 90 min after injection were taken for pharmacokinetic and safety analysis. The concentration of ^68Ga-RGD in the blood samples (Bq/ml) was calculated by gamma counter (Wizard Detector Gamma Counter, PerkinElmer Inc., Waltham, MA, USA) while simultaneously measuring 1% standards. Safety analysis included a complete blood count test and assessment of kidney and liver function by measuring the eGFR (MDRD), total bilirubin and aspartate aminotransferase and alanine aminotransferase levels.

αvβ3 integrin [3] = test system: T1, αvβ3 integrin; assay: clinical; conditions: human, in vivo, iv, 200 MBq, total radioactivity
T1 construct: integrin αvβ3 predominantly expressed in endothelial cells of tumour-associated blood vessels; from tissue; host or cells: tumour lesions and lymph nodes of living patients with oral squamous cell carcinoma (in vivo PET/CT)
Procedure: as §1
(§2) Five patients underwent three static whole-body PET/CT at 30, 60 and 90 min post injection on a Biograph 40 mCT scanner (Siemens Medical Solutions, Knoxville TN, USA) equipped with a dual-slice CT for 4 min of PET data per bed position, with bed positions from the base of the skull to trochanter major. For each PET/CT image, two image reconstructions were used, with a TrueX algorithm with point spread function (PSF) and time of flight (TOF) measurements, using three iterations, 21 subsets, matrix size 256 × 256 (pixel spacing of 3.2 mm) or 200 × 200 (pixel spacing of 4.07 mm), full width at half maximum (FWHM) of 5 mm. Post-processing was performed using a 3D Gaussian filter kernel, 7.5 or 3 mm. The other five patients underwent 60 min dynamic ^68Ga-RGD PET/CT starting at start of injection, of the head and neck region (15 cm FOV), to obtain time–activity curves in malignant lesions. These images were reconstructed in 33 frames ([…], 10 × 5 s, 3 × 10 s, 2 × 15 s, 5 × 30 s, 5 × 120 s, 5 × 300 s and 2 × 600 s). For all patients, a low-dose CT scan was acquired for attenuation correction and anatomical reference, with an automatically modulated X-ray tube voltage and current (100 kV, 30 mA) using Care kV and Care Dose4D (Siemens Healthcare), 512 × 512 voxels; 0.98 pixel spacing; 3 mm slice thickness; 1 pitch. The CT images for anatomical reference were reconstructed with a B31f convolution kernel, slice thickness 5 mm.
(§3) All ^68Ga-RGD PET/CT scans were evaluated by two experienced nuclear medicine physicians (WJGO, EHJGA) on a dedicated workstation (Oasis software, Segami Corporation, Columbia, MD, USA) with a PET/CT viewer for automatic image registration. A volume-of-interest (VOI) around the tumour mass was manually drawn to obtain a maximum standardised uptake value (SUVmax) of the tumour area—drawn on the static PET/CT image acquired 60 min post injection—and to determine the 41% SUVmax isocontour and SUVpeak (highest mean SUV value of 1 cm^3) within this tumour volume. The same analysis was applied on the dynamic imaging series, in which a reconstructed frame of 4 min (56–60 min p.i.) was extracted from the dynamic imaging series to obtain a static image for tumour volume delineation. The dynamic imaging series were also used to obtain time–activity curves using the PMOD Medical Imaging Program version 3.15 (PMOD technologies LLC, Zürich, Switzerland). Curves were estimated for both tumour lesions and background tissue. Tumour delineation was based on the evaluation in Oasis (Oasis software, Segami Corporation, Columbia, MD, USA), drawn on the last frame of the PET series, and subsequently copied to the other frames. For time–activity curves of the muscle, a VOI of 1.5 ml was defined in dorsolateral musculature (contralateral to the tumour) using the CT images and subsequently copied to the dynamic dataset. […]

clinical = conditions: human, in vivo, iv, SUVmax tumour
Procedure: as §1, §2, §3

αvβ3 integrin [4] = target: T2, αvβ3 integrin (Homo sapiens, UniProt P05106+P06756); assay: clinical; conditions: in vivo
T2 construct: integrin αvβ3 predominantly expressed in endothelial cells of tumour-associated blood vessels; from tissue; host or cells: tumour lesions and lymph nodes of living patients with oral squamous cell carcinoma (in vivo PET/CT)
Procedure: as §1, §2, §3

[5] = parameters: species or system human; conditions: in vivo; remark: listed apart in the source
Procedure: as §1, with “[…] The biological half-life of ^68Ga-RGD was calculated using bi-exponential regression” for “Safety”, “in MATLAB version R2014b (MathWorks, Natick, MA, USA). The analyses of optimal imaging time point and uptake values were analysed using SPSS Statistics, version 22.0.0.1 (IBM), with” for “included”, “one-way ANOVA followed by a Bonferroni post hoc” for “complete blood count”, “to adjust for multiple comparisons. […]” for “and assessment of kidney and liver function by measuring the eGFR (MDRD), total bilirubin and aspartate aminotransferase and alanine aminotransferase levels.”

T2 sequence (P06756 31-889 limits assumed): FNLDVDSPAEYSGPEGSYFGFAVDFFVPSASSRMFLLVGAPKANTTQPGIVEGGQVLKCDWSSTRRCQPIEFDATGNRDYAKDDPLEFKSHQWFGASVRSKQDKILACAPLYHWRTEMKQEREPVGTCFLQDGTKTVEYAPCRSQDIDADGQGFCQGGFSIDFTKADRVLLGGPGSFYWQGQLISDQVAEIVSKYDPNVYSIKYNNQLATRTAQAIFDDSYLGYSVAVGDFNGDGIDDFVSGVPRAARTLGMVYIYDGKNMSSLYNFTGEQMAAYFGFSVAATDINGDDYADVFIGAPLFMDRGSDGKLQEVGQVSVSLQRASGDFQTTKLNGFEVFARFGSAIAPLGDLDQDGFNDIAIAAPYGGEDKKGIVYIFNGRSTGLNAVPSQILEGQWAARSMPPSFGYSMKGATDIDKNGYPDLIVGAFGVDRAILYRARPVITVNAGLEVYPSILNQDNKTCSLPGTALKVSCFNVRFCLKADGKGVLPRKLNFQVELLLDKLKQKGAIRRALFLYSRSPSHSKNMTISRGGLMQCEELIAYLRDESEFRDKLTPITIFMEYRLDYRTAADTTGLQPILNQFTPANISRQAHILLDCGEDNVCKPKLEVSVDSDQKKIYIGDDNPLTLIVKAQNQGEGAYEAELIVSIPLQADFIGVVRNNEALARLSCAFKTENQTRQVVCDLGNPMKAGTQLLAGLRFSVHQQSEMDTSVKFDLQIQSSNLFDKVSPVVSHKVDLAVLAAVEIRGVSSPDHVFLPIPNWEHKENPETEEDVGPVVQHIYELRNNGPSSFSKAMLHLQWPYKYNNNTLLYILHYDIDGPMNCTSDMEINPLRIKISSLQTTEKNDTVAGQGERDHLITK
T2 sequence (P06756 891-1048 limits assumed): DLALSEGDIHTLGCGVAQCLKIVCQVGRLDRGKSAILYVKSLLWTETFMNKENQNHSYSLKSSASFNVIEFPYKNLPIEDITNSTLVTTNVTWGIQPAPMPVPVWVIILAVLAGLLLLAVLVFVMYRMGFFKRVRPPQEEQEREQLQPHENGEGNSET
T2 sequence (P05106 27-788): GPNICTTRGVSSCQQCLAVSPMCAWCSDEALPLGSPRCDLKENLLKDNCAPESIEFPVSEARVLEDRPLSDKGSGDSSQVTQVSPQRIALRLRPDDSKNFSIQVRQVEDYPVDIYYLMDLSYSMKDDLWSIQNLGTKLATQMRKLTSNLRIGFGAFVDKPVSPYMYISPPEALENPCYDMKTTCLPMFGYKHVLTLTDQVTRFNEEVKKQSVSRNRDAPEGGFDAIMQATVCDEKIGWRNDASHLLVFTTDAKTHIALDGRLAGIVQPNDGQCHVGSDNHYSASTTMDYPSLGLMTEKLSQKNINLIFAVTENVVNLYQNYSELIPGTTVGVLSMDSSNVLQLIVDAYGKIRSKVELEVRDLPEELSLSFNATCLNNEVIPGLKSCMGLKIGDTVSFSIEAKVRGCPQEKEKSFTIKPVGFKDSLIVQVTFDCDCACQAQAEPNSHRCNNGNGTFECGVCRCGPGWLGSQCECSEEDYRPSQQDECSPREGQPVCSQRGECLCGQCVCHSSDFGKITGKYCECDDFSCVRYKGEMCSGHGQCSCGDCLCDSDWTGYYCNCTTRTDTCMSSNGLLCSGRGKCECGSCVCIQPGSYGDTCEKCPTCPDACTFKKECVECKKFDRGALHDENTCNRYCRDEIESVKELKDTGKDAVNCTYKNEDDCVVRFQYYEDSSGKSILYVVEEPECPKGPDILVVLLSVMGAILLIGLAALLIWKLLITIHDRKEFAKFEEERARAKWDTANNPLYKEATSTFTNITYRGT

For `N=C(N)NCCC[C@@H]1NC(=O)[C@H](CCCCNC(=O)CC[C@H](NC(=O)CN2CCN(CC(=O)O)CCN(CC(=O)O)CCN(CC(=O)O)CC2)C(=O)NCCCC[C@@H]2NC(=O)[C@@H](Cc3ccccc3)NC(=O)[C@H](CC(=O)O)NC(=O)CNC(=O)[C@H](CCCNC(=N)N)NC2=O)NC(=O)[C@@H](Cc2ccccc2)NC(=O)[C@H](CC(=O)O)NC(=O)CNC1=O` [^68Ga-RGD, [^68Ga]Ga-DOTA-E-[c(RGDfK)]2, metal not drawn], the “distribution half-life (t1/2α)” value [1] was 0.14 ± 0.07 min, the laboratory values [2] was “within normal ranges” and the “vital signs and (serious) adverse events” value [2] was “no changes in vital signs nor any (serious) adverse events”. For the same compound, the SUV (αvβ3 integrin [3]; mean SUVmax in lymph nodes with radiotracer uptake) was 4.4 ± 2.3 SUV, the SUV at 0.5 h (αvβ3 integrin [3]; mean SUVmax in tumour tissue) was 5.7 ± 0.8 SUV and the SUV at 1 h (αvβ3 integrin [3]; mean SUVmax in tumour tissue) was 5.5 ± 1.2 SUV. For the same compound, the SUV at 1.5 h (αvβ3 integrin [3]; mean SUVmax in tumour tissue) was 4.8 ± 1.2 SUV, the SUV at 1 h (clinical) was 6.5 SUV and the “SUVmax in lymph nodes with radiotracer uptake, range” value (αvβ3 integrin [4]) was 1.8-7.6. For the same compound, the “time after injection at which plateau phase was reached in tumour tissue” value (αvβ3 integrin [4]) was 15 min, the “time after injection at which tracer accumulation in tumour tissue plateaued” value (αvβ3 integrin [4]) was 10 min and the “tumour-to-muscle tissue ratio (mean)” value (αvβ3 integrin [4]) was 6.4 ± 0.7. For the same compound, the elimination half-life [5] was 23.0 ± 2.3 min and the “uptake by blood cells (whole blood versus plasma concentration)” value [5] was “not taken up by the blood cells”.
